Target: T1, tumor necrosis factor receptor (TNFR)-associated factor 1, Q13077
T1 chain: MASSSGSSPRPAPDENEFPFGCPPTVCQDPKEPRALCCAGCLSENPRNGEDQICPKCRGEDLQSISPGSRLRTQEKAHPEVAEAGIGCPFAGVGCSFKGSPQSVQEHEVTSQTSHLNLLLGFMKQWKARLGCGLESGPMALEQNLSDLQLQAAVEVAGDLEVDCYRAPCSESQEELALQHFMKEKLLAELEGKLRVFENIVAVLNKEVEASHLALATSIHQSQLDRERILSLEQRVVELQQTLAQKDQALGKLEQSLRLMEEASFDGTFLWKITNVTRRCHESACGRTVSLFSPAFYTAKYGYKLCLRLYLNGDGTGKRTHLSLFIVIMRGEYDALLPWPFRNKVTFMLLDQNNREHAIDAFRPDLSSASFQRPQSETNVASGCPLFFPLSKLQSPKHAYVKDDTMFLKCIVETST

B1: caspase 8 (protein)
chain: MDFSRNLYDIGEQLDSEDLASLKFLSLDYIPQRKQEPIKDALMLFQRLQEKRMLEESNLSFLKELLFRINRLDLLITYLNTRKEEMERELQTPGRAQISAYRVMLYQISEEVSRSELRSFKFLLQEEISKCKLDDDMNLLDIFIEMEKRVILGEGKLDILKRVCAQINKSLLKIINDYEEFSKERSSSLEGSPDEFSNGEELCGVMTISDSPREQDSESQTLDKVYQMKSKPRGYCLIINNHNFAKAREKVPKLHSIRDRNGTHLDAGALTTTFEELHFEIKPHDDCTVEQIYEILKIYQLMDHSNMDCFICCILSHGDKGIIYGTDGQEAPIYELTSQFTGLKCPSLAGKPKVFFIQACQGDNYQKGIPVETDSEEQPYLEMDLSSPQTRYIPDEADFLLGMATVNNCVSYRNPAEGTWYIQSLCQSLRERCPRGDDILTILTEVNYEVSNKDDKKNMGKQMPQPTFTLRKKLVFPSD
  cleavage of TRAF1 to N-terminal TRAF1 (western blot, normal human keratinocytes): The overexpression of TRIF caused caspase 8-dependent cleavage of TRAF1 to release N-terminal TRAF1 (N-TRAF1) (FIG. 14e), which was prevented by caspase 8 inhibitor (FIG. 14f)

— patent US20100166708
